B1: COVID19_P01_H05 (scFv, V domains shown)
VH: QVQLVQSGAEVKKPGSSVKVSCKASGGTFSNFALTWVRQAPGQGLEWMGLINPSGGSTSYAQRFQGRVTITADESTSTAYMELSSLRSEDTAVYYCARDSVMGGMDVWGQGTLVTVSS
VL: SSYVLTQPPSVSVAPGKTARITCGGNNIGSKSVHWYQQKPGQAPVLVIYYDSDRPSGIPERFSGSNSGNTATLTISRVEAGDEADYYCQVWASSSDYVFGGGTKLTVLA
B2: COVID19_P14_F05 (scFv, V domains shown)
VH: QVQLVQSGAEVKKPGSSVKVSCKASGNTFSMFAINWVRQAPGQGLEWVGVINPIGSTTTYAQKFQGRVTITADESTSTAYMELSSLRSEDTAVYYCARDTVMGGMDVWGQGTLVTVSS
VL: B1 VL with A92V
B3: COVID19_P14_B07 (scFv, V domains shown)
VH: QVQLVQSGAEVKKPGSSVKVSCKASGYTFTSYGISWVRQAPGQGLEWMGWINPNSGGTNYAQKFQGRVTITADESTSTAYMELSSLRSEDTAVYYCAVETVMGGFTVWGQGTLVTVSS
VL: B1 VL with A92D
B4: COVID19_P14_H10 (scFv, V domains shown)
VH: QVQLVQSGAEVKKPGSSVKVSCKASGGSFSRFPISWVRQAPGQGLEWMGGIIPIFGTANYAQRFQGRVTITADESTSTAYMELSSLRSEDTAVYYCALETVMGGLQVWGQGTLVTVSS
VL: B1 VL with A92D
B5: COVID19_P01_B08 (scFv, V domains shown)
VH: B1 VH with L34I, L50V, S54G, S59T, R63T, S100T
VL: B1 VL with A92D
B6: COVID19_P01_H10 (scFv, V domains shown)
VH: QVQLVQSGAEVKKPGSSVKVSCKASGGTFGNYPITWVRQAPGQGLEWMGIIYPGDSDARYRPSFQGRVTITADESTSTAYMELSSLRSEDTAVYYCARDFSMGGMDVWGQGTLVTVSS
VL: B1 VL with A92D, S93D
notes: also called COVID19_PO1_H10
B7: COVID19_P01_E11 (scFv, V domains shown)
VH: QVQLVQSGAEVKKPGSSVKVSCKASGGTFSNYTITWVRQAPGQGLEWLGWISAYNGNTDYAQKLQGRVTITADESTSTAYMELSSLRSEDTAVYYCARDALMGGMDVWGQGTLVTVSS
VL: B1 VL with A92D, S94R
B8: COVID19_P14_B05 (scFv, V domains shown)
VH: B1 VH with N31S, F32Y, A33T, L34I, T35S, L50I, R63K, S100T, D106G
VL: B1 VL with A92D, D96F
B9: COVID19_P02_A04 (scFv, V domains shown)
VH: QVQLVQSGAEVKKPGSSVKVSCKASGYAFTSYYMHWVRQAPGQGLEWMGVIDPSEGSTSNARKFQGRVTITADESTSTAYMELSSLRSEDTAVYYCVSDTVMGGMDVWGQGTLVTVSS
VL: B1 VL with I48V, Y50D, A92D, D96L
B10: COVID19_P14_F06 (scFv, V domains shown)
VH: B1 VH with N31S, L34I, T35I, G49A, G55S, S57T, R63K, D99E, S100T
VL: B1 VL with A92D, D96H
B11: COVID19_P02_A11 (scFv, V domains shown)
VH: B2 VH with N27S, I54R, T57S
VL: B1 VL with A92D, S93R
B12: COVID19_P13_B05 (scFv, V domains shown)
VH: B3 VH with G33D, S35N, V98R, E99D, V101F, M102F, F105M, T106D
VL: B1 VL with A92D, D96Y
B13: COVID19_P14_F07 (scFv, V domains shown)
VH: QVQLVQSGAEVKKPGSSVKVSCKASGGTFSSYAISWMRQAPGQGLEWMGWINPNSGGTNYAQKFQGRVTITADESTSTAYMELSNLRSEDTAVYYCARDTYWGGMDVWGQGTLVTVSS
VL: B1 VL with A92D, D96F
B14: COVID19_P01_H07 (scFv, V domains shown)
VH: QVQLVQSGAEVKKPGSSVKVSCKASGYSFNNYDLHWVRQAPGQGLEWMGGIIPIFDTANYAQKFQGRVTITADESTSTAYMELSSLRSEDTAVYYCALETVMGGMVKWGQGTLVTVSS
VL: B1 VL with V78I, A92D, S95G
B15: COVID19_P13_H07 (scFv, V domains shown)
VH: QVQLVQSGAEVKKPGSSVKVSCKASGYTFINYDINWVRQAPGQGLEWMGGITPIFGTAKYAQKFQGRVTITADESTSTAYMELSSLRSEDTAVYYCARDTVMGGMDVWGQGTLVTVSS
VL: B1 VL with A92D
B16: COVID19_P01_H06 (scFv, V domains shown)
VH: B9 VH with A28T, V50L, E55G, S57T, N60Y, R62Q, S98W
VL: SYVLTQPPSVSVAPGKTAARITCGGNNIGSKSVHWYQQKPGQAPVLVIYKDGERPSGIPERFSGSNSRNTATLTISRVEAGDEADYYCQVWDSSSLYVFGGGTKLTVLA

Residue numbers refer to the chain shown, from its start. Bounds are passed on as bounds.

The first assay addresses T1, SARS-CoV-2 Receptor Binding Domain (RBD) protein (SARS-CoV-2, UniProt P0DTC2 319-541).
T1 construct: also called Sars-Cov-2 (COV2)
The experiment in a line: SPR (Carterra LSA); scFv captured by anti-V5, RBD as analyte.
As a reminder, the Kd is the equilibrium constant for the complex coming apart. Low values mean higher affinity, high ones lower affinity. As usually defined, the koff is the rate constant with which the complex falls apart. Low readings indicate a long-lived complex, high ones a short-lived complex. One may read the kon as the second-order rate constant of association. Read a low kon as slow association. As for B1, the equilibrium dissociation constant (Kd) is 1.11 nM, the koff is 0.000468 s⁻¹ and the on-rate constant (kon) was 423000 M⁻¹ s⁻¹.

The molecule B2 showed a Kd of 21.7 nM, a koff of 0.00152 s⁻¹ and a kon of 69900 M⁻¹ s⁻¹.

Molecule B3 displayed a Kd of 34.2 nM, a koff of 0.0131 s⁻¹ and a kon of 383000 M⁻¹ s⁻¹.

In the case of B4, the Kd worked out at 28.3 nM, the koff amounted to 0.01 s⁻¹ and the on-rate constant (kon) amounted to 355000 M⁻¹ s⁻¹.

With B5, the affinity, expressed as Kd, was 33.8 nM; the koff came out at 0.0149 s⁻¹; the kon is 442000 M⁻¹ s⁻¹.

For B6, binding was characterised by a dissociation constant (Kd) of 39.3 nM, the dissociation rate constant (koff) amounted to 0.0148 s⁻¹ and the kon came to 377000 M⁻¹ s⁻¹.

B7 returned a dissociation constant Kd of 5.87 nM, a koff of 0.000586 s⁻¹ and a kon of 99900 M⁻¹ s⁻¹.

B8: binding was characterised by a dissociation constant (Kd) of 48 nM, the koff was 0.0141 s⁻¹ and the on-rate constant (kon) came out at 294000 M⁻¹ s⁻¹.

Turning to B9, binding was characterised by a dissociation constant (Kd) of 41.4 nM, the koff is 0.0187 s⁻¹ and the kon is 451000 M⁻¹ s⁻¹.

The molecule B10 showed a Kd of 48.3 nM, a koff of 0.0024 s⁻¹ and a kon of 49700 M⁻¹ s⁻¹.

Molecule B11 displayed a Kd of 45.1 nM, a dissociation rate constant (koff) of 0.0147 s⁻¹ and an on-rate constant (kon) of 326000 M⁻¹ s⁻¹.

B12 gave a Kd of 21.9 nM, an off-rate constant (koff) of 0.0037 s⁻¹ and a kon of 170000 M⁻¹ s⁻¹.

B13 displayed a dissociation constant (Kd) of 17 nM, an off-rate constant (koff) of 0.00245 s⁻¹ and a kon of 144000 M⁻¹ s⁻¹.

Molecule B14 returned a dissociation constant Kd of 0.81 nM, a dissociation rate constant (koff) of 0.000401 s⁻¹ and a kon of 496000 M⁻¹ s⁻¹.

For B15, the affinity, expressed as Kd, was 1.92 nM; the dissociation rate constant (koff) worked out at 0.00031 s⁻¹; the kon turned out to be 160000 M⁻¹ s⁻¹.

The molecule B16 came in with a dissociation constant Kd of 1.31 nM, an off-rate (koff) of 0.000621 s⁻¹ and a kon of 474000 M⁻¹ s⁻¹.

A further assay concerns the target T1, SARS-CoV-2 Receptor Binding Domain …. The experiment in a line: SPR (Carterra LSA).
Molecule B1 registered a dissociation constant Kd below 50 nM.

On to B2, for which the equilibrium dissociation constant (Kd) is below 50 nM.

Regarding B3, the Kd is below 50 nM.

B4 had a Kd below 50 nM.

B5 returned a Kd below 50 nM.

For the molecule B6, the dissociation constant Kd is below 50 nM.

B7 registered a Kd below 50 nM.

For B8, the dissociation constant (Kd) is below 50 nM.

On to B9, for which the Kd is below 50 nM.

As for B10, the equilibrium dissociation constant (Kd) is below 50 nM.

As for B11, the Kd was below 50 nM.

B12 returned a Kd below 50 nM.

Turning to B13, the Kd was below 50 nM.

Regarding B15, the Kd is below 50 nM.

The next assay has as its target SARS-CoV-2 spike protein (on pseudovirus) (SARS-CoV-2, UniProt P0DTC2 14-1273). Nature of the assay: cell-based or functional assay.
On to B1, for which the “IC50 [µg/mL] pseudotyped lenti neutralization” value (“IC50” below) was found to be 35 µg/mL.

On to B14, for which the “IC50” value was 6.5 µg/mL.

Take B15: the “IC50” value was determined as 15 µg/mL.

Regarding B16, the “IC50” value turned out to be 2.1 µg/mL.

The record behind these values is patent US20230272051A1 (CENTIVAX, published 2023).
